In publication PMC8885691 (2022):

Target: p53pΔF19
Experiment: ITC

Kd: 20.1 µM
B1: p53-binding domain of human MdmX (N-MdmX, amino acids 22-110) (domain or fragment)
chain: GQINQVRPKLPLLKILHAAGAQGEMFTVKEVMHYLGQYIMVKQLYDQQEQHMVYCGGDLLGELLGRQSFSVKDPSPLYDMLRKNLVTLA
